Measured values from IntAct's records for PubMed 15601840.

B1: Structural maintenance of chromosomes protein 6 (Homo sapiens), Q96SB8 (parent)
chain: MAKRKEENFSSPKNAKRPRQEELEDFDKDGDEDECKGTTLTAAEVGIIESIHLKNFMCHSMLGPFKFGSNVNFVVGNNGSGKSAVLTALIVGLGGRAVATNRGSSLKGFVKDGQNSADISITLRNRGDDAFKASVYGNSILIQQHISIDGSRSYKLKSATGSVVSTRKEELIAILDHFNIQVDNPVSVLTQEMSKQFLQSKNEGDKYKFFMKATQLEQMKEDYSYIMETKERTKEQIHQGEERLTELKRQCVEKEERFQSIAGLSTMKTNLESLKHEMAWAVVNEIEKQLNAIRDNIKIGEDRAARLDRKMEEQQVRLNEAEQKYKDIQDKLEKISEETNARAPECMALKADVVAKKRAYNEAEVLYNRSLNEYKALKKDDEQLCKRIEELKKSTDQSLEPERLERQKKISWLKERVKAFQNQENSVNQEIEQFQQAIEKDKEEHGKIKREELDVKHALSYNQRQLKELKDSKTDRLKRFGPNVPALLEAIDDAYRQGHFTYKPVGPLGACIHLRDPELALAIESCLKGLLQAYCCHNHADERVLQALMKRFYLPGTSRPPIIVSEFRNEIYDVRHRAAYHPDFPTVLTALEIDNAVVANSLIDMRGIETVLLIKNNSVARAVMQSQKPPKNCREAFTADGDQVFAGRYYSSENTRPKFLSRDVDSEISDLENEVENKTAQILNLQQHLSALEKDIKHNEELLKRCQLHYKELKMKIRKNISEIRELENIEEHQSVDIATLEDEAQENKSKMKMVEEHMEQQKENMEHLKSLKIEAENKYDAIKFKINQLSELADPLKDELNLADSEVDNQKRGKRHYEEKQKEHLDTLNKKKRELDMKEKELEEKMSQARQICPERIEVEKSASILDKEINRLRQKIQAEHASHGDREEIMRQYQEARETYLDLDSKVRTLKKFIKLLGEIMEHRFKTYQQFRRCLTLRCKLYFDNLLSQRAYCGKMNFDHKNETLSISVQPGEGNKAAFNDMRALSGGERSFSTVCFILSLWSIAESPFRCLDEFDVYMDMVNRRIAMDLILKMADSQRFRQFILLTPQSMSSLPSSKLIRILRMSDPERGQTTLPFRPVTQEEDDDQR
B2: Structural maintenance of chromosomes protein 5 (Schizosaccharomyces pombe (strain ATCC 38366 / 972)), O13710 (parent)
chain: MDGLRPSKRRKSNPLYSDYALGSIVRIKLVNFVTYDYCELFPGPYLNLIIGPNGTGKSTIVSAICIGLGWPPKLLGRAKEAREFIKYGKNTATIEIEMKYRDDETVTITRQISQDKSSSFSINREACATSSITSLMDTFNVQLNNLCHFLPQDRVAEFAQLDPYSRLMETERAIDHEGLLPAHEKLIDLRKREREILQNKNQGQSTLNSLKDRQQALEKEVNIFKEREKIKSYIEMLGLAKMLVIYREKTNVFNQLRADKKKLKKDLKDLVEEFQPILDKGEELRSDLKLKDDTFNDYSSASMELNTSNLRARASFSNFMENEKKLYEKVNTNRTLLRNANLTLNEAQQSVKSLTERQGPRPSDNGVQDLQEKMQEVNAEKLQHENEKLESSHELGSIRTLKAQKLIDLDNIKRELSYYNDATKRKLDFMSSAPGWEDAYQTYQLLKEYESAFEAPAYGPIYMNLKCKEKGFAALIEGFFRTDTFRTFIMSNYNDYLKLMDLITSKTKYTPTIREFSSERKKKIEDFEPPCSREKLQSFGFDGYVIDFLEGPEVVLVALCHMLKIHQIPIAKRELPPASVNALNNFRLANGDPVLKTYLAGSSIHLVFRSAYGDREITRRTDPLPSRSIYFSENVEMDLVKRKEEQLNAQLSQLENLQNEERKLQEKVNEHESLLSRTNDILSTLRKERDEKLIPIHEWQQLQERIEHQTLLLRQREKVPEQFAAEIEKNEDIRKENFEALMNSVLKVKENSIKATNNFEKMLGSRLNVIEAKYKLEKHEMDANQVNARLTEVQDRLKDITDKLASAREDAMSLYGSVVDSLQTQSSDRQTAITELNEEFATSSEVDNKISIEETKLKFMNVNSYVMEQYDARKKEIEELESKMSDFDQSVEELQDEMNSIKEDWVSKLEENVQCISDRFSKGMSGMGYAGEVRLGKSDDYDKWYIDILVQFREEEGLQKLTGQRQSGGERSVSTIMYLLSLQGLAIAPFRIVDEINQGMDPRNERVVHRHIVNSVCDNAVSQYFLVTPKLLPDLTYHRNLKVLCICNGAWLPATFRTSLSTYFEKLKKSALISSS
partner: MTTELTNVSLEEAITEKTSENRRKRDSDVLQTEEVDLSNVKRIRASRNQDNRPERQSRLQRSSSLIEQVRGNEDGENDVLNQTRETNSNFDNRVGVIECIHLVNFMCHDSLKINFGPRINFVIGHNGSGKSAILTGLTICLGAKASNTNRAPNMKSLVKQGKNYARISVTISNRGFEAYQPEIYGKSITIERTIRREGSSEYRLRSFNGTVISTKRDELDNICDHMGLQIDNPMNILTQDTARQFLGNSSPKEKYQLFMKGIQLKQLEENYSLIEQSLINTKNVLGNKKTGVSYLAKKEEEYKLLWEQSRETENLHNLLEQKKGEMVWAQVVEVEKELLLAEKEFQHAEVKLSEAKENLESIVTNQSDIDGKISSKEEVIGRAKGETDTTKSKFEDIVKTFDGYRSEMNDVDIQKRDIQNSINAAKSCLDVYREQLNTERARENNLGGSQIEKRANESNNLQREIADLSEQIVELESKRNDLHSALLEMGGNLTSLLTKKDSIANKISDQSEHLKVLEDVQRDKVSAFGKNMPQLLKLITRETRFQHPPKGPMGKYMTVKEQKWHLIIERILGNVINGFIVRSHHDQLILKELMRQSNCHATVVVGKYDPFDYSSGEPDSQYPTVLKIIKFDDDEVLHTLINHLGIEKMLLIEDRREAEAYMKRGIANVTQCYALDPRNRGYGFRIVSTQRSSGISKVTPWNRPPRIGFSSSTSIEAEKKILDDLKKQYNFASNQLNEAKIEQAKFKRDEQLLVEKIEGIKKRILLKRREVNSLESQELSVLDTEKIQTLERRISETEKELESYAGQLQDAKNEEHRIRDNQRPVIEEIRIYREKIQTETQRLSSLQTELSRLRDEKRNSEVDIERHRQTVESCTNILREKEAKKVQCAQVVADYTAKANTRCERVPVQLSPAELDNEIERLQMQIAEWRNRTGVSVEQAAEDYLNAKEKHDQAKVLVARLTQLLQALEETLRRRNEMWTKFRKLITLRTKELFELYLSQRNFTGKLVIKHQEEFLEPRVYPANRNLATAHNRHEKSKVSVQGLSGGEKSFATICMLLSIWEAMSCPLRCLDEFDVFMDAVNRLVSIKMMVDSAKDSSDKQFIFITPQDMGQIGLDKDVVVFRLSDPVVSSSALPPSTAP

Variants of: B1
Settings: with smc5_human SMC5, Q8IY18
Chain of smc5_human SMC5, Q8IY18 (Q8IY18 whole entry): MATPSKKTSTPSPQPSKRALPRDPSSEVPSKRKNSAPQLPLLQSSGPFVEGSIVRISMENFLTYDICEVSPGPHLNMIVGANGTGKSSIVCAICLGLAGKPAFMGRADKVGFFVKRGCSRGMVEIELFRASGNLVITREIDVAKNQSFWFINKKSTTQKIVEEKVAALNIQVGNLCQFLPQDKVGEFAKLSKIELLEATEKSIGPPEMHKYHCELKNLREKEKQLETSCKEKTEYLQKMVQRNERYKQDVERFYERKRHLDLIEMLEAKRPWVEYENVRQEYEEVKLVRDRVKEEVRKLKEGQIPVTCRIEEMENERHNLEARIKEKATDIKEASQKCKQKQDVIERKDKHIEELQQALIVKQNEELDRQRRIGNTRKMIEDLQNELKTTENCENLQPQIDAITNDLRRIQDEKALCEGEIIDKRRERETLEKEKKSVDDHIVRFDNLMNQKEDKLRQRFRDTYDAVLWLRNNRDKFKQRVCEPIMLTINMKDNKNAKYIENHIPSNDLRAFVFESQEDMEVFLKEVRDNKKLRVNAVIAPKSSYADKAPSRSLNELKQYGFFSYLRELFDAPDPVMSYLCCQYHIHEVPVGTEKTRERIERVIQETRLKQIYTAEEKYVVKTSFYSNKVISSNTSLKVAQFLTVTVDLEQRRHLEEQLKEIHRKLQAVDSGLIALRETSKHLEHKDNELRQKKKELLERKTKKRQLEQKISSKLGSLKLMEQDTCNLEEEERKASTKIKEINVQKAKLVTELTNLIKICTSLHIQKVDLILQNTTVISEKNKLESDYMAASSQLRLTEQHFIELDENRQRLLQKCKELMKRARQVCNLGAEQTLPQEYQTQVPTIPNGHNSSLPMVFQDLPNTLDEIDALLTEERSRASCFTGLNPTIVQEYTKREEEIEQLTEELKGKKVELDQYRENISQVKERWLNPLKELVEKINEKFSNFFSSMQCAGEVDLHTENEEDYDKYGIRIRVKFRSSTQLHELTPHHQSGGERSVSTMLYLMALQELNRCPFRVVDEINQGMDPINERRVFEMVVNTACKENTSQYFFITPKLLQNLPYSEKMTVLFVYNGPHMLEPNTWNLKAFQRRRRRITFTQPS

effect of a mutation on the interaction	Variant
decreasing interaction	G506R

Variants of: B2
Settings: with smc6_schpo smc6, P53692

effect of a mutation on the interaction	Variant
decreasing interaction	G540R
